Values joined by “and” are separate entries in the source; they are usually repeats but may differ in a detail not shown here. Identical values can stand only once.
What was measured:
[1] = biological target: Fc-scTL1A (TL1W14) (human) (UniProt O95150); experiment: ELISA; reversed format: TL1A molecules immobilised, DR3 titrated
Target sequence in this assay (O95150 other isoform, or with tags, fused parts or gaps): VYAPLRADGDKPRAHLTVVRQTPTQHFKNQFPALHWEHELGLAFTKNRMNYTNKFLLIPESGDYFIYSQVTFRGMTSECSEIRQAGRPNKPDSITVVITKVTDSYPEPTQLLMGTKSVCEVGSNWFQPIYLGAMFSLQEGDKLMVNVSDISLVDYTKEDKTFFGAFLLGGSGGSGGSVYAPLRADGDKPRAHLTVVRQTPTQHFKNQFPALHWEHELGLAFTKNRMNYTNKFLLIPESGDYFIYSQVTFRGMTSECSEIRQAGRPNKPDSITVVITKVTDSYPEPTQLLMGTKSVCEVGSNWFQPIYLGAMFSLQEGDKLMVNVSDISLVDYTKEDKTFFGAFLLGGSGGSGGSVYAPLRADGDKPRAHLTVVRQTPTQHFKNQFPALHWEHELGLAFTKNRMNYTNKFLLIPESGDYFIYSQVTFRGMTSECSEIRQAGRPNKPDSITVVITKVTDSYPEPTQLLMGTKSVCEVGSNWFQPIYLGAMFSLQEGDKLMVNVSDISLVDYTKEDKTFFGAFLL

[2] = biological target: HSA-scTL1A (TL1W15) (human) (UniProt O95150); experiment: as above
DcR3 (TNFRSF6B) = DcR3 (TNFRSF6B) (UniProt O95407); experiment: ELISA; TL1A variants on DcR3; who was immobilised is not told for DcR3; triplicate
Chain of DcR3 (TNFRSF6B) (O95407 30-300): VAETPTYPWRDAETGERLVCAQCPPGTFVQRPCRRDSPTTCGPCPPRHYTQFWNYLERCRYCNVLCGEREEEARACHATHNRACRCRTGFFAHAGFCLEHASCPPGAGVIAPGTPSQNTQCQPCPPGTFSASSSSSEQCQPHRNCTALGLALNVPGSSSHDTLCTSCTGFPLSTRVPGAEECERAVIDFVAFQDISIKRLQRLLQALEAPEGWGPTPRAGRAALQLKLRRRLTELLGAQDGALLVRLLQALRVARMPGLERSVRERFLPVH

Recombinant DR3-Fc [3] = biological target: Recombinant DR3-Fc (UniProt Q93038); experiment: ELISA; receptor (DR3-Fc; DcR3) immobilised on Maxisorp plates, TL1A variant titrated in 3-fold dilutions, overnight 4 °C, detected with anti-human TL1A-biotin and streptavidin-HRP; concentrations normalised to TL1A trimer; triplicate
Chain of Recombinant DR3-Fc (Q93038 25-199): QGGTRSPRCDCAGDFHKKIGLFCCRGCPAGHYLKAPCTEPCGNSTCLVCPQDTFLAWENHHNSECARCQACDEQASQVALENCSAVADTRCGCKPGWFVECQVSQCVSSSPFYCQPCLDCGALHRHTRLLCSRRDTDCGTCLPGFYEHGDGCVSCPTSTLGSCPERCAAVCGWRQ

[4] = biological target: Fc-scTL1A (TL1W14) (human) (UniProt O95150); experiment: SEC-MALS; Waters BEH SEC column, 25 °C, PBS pH 7.4, 5 µg of sample
Recombinant DR3-Fc [5] = biological target: Recombinant DR3-Fc (UniProt Q93038); experiment: ELISA; DR3-Fc immobilised non-specifically on Maxisorp plates (overnight, 4 °C), casein block; TL1A added in 3-fold dilutions, overnight 4 °C; bound TL1A detected with polyclonal rabbit anti-human TL1A-biotin and streptavidin-HRP; concentrations normalised to TL1A trimers; triplicate
DcR3 = DcR3 (UniProt O95407); experiment: ELISA; receptor (DR3-Fc; DcR3) immobilised on Maxisorp plates, TL1A variant titrated in 3-fold dilutions, overnight 4 °C, detected with anti-human TL1A-biotin and streptavidin-HRP; concentrations normalised to TL1A trimer; triplicate
Chain of DcR3 (O95407 30-300): as the sequence (O95407 30-300) above

Chain of HSA-scTL1A (TL1W15) (human) (O95150 other isoform, or with tags, fused parts or gaps): as the sequence (O95150 other isoform, or with tags, fused parts or gaps) above

For “Recombinant DR3-Fc (from UniProt Q93038 25-199) (Fc fusion)”, the EC50 [1] was 1.5 nM and the EC50 [2] was 3.8 nM.
With “Fc-scTL1A (TL1W14) (from UniProt O95150 84-251; O95150 84-251; O95150 84-251) (Fc fusion)” the EC50 (DcR3 (TNFRSF6B)) was 6.5 nM, the EC50 (Recombinant DR3-Fc [3]) was 26.2 nM and the stoichiometry N [4] was 2 and 4. It also gave an IFNg in C57BL/6 mice 6 h after Fc-scTL1A (i.p.) with anti-CD3 antibody (i.v.) (mouse DR3 (mouse)) of 750 pg/mL and an EC50 (Recombinant DR3-Fc [5]) of 9.7 nM.
With “TL1W80 (K111A) (from UniProt O95150 1-251) (ligand)” the EC50 (DcR3 (TNFRSF6B)) was 89.8 nM, the EC50 (DcR3) was 16.3 nM and the EC50 (Recombinant DR3-Fc [5]) was 30 nM.
“TL1W45 (E190F) (from UniProt O95150 1-251) (ligand)” gave an EC50 (DcR3 (TNFRSF6B)) of 21.2 nM and an EC50 (Recombinant DR3-Fc [5]) of 31.4 nM.
“TL1W92 (M158Y) (from UniProt O95150 1-251) (ligand)” was tested, and the EC50 (DcR3 (TNFRSF6B)) was 69.2 nM, the EC50 (DcR3) was 12.6 nM and the EC50 (Recombinant DR3-Fc [5]) was 16.6 nM.
In the case of “TL1W109 (S187L) (from UniProt O95150 1-251) (ligand)”, the EC50 (DcR3 (TNFRSF6B)) is reported as 85.5 nM, the EC50 (DcR3) is reported as 15.5 nM and the EC50 (Recombinant DR3-Fc [5]) is reported as 17.7 nM.
“TL1W38 (L123K) (from UniProt O95150 1-251) (ligand)” gave an EC50 (DcR3 (TNFRSF6B)) of 24.7 nM, an EC50 (Recombinant DR3-Fc [3]) of 29.5 nM and an EC50 (Recombinant DR3-Fc [5]) of 29.4 nM.
In the case of “TL1W122 (N207F) (from UniProt O95150 1-251) (ligand)”, the EC50 (DcR3 (TNFRSF6B)) is reported as 58.5 nM, the EC50 (DcR3) is reported as 10.6 nM and the EC50 (Recombinant DR3-Fc [5]) is reported as 30.2 nM.
“TL1W95 (Q167A) (from UniProt O95150 1-251) (ligand)” was tested, and the EC50 (DcR3 (TNFRSF6B)) was 176 nM, the EC50 (DcR3) was 32 nM and the EC50 (Recombinant DR3-Fc [5]) was 17.1 nM.

Reference: paper PMC9709071
